The record followed here is article PMC12491437 (Nature Communications, 2025).

Where “and” joins values, the source holds several entries; their conditions need not be identical. Identical values can stand only once.

The target in data set [1] is D2R Y93C, FLAG-D2R-Rluc8 / FLAG-D2R-Venus (UniProt P14416). The experiment in a line: FRET or BRET; β-arrestin recruitment BRET in HEK293 cells: D2R-Rluc8 donor, βarr1-YFP or βarr2-YFP acceptor, 5 μM coelenterazine-h; basal (PBS) and after quinpirole (10 μM time course over 5 min, fitted to a one-phase association; 1 nM-1 mM concentration response). A general note: In BRET a luciferase serves as donor, and the signal depends on an acceptor being close.

Data set [2] has as its target D2R V96C, FLAG-D2R-Rluc8 / FLAG-D2R-Venus (UniProt P14416). Described as above.
Data set [3] deals with D2 dopamine receptor (D2R) wild type, FLAG-D2R-Rluc8 / FLAG-D2R-Venus (UniProt P14416). The description is as above.
Data set [4] addresses D2R V96S, FLAG-D2R-Rluc8 / FLAG-D2R-Venus (UniProt P14416). The data set is described as above.
The target in a further data set is D2R V97C, FLAG-D2R-Rluc8 (UniProt P14416). Described as above.
Data set [5] concerns the molecule itself. The experiment in a line: PD-PALM (single-molecule localisation microscopy, TIRF, neighbourhood analysis); cell surface FLAG-D2R on HEK293 cells labelled with anti-FLAG-CAGE500 (1:1), fixed; Getis-Franklin neighbourhood analysis, search radius 50 nm; basal or after 5 min 10 μM quinpirole.

Regarding “β-arrestin-2-YFP (from UniProt P32121 1-409) (natural protein)”, the half time of quinpirole-induced recruitment in data set [1] was 34.6 s; in data set [2], 35.5 s; in data set [3], 68.4 s and 30.3 s and 41.1 s; in data set [4], 39.4 s; with D2R V97C, FLAG-D2R-Rluc8, 32.7 s. The initial rate of quinpirole-induced recruitment (BRET ratio units per second) was 0.000113 in data set [1]; 0.001 in data set [2]; 0.0007 in data set [4]; 0.000181 with D2R V97C, FLAG-D2R-Rluc8. Further, the k (rate constant of quinpirole-induced recruitment, one-phase association fit) came out at 0.00333 s⁻¹ in data set [1]; 0.02 s⁻¹ in data set [2]; 0.027 s⁻¹ in data set [4]; 0.00443 s⁻¹ with D2R V97C, FLAG-D2R-Rluc8.

B1: D2R V96S/V97C, FLAG-D2R-Rluc8 / FLAG-D2R-Venus (receptor, UniProt P14416 1-443, looked up)
chain: MDPLNLSWYDDDLERQNWSRPFNGSDGKADRPHYNYYATLLTLLIAVIVFGNVLVCMAVSREKALQTTTNYLIVSLAVADLLVATLVMPWVVYLESCGEWKFSRIHCDIFVTLDVMMCTASILNLCAISIDRYTAVAMPMLYNTRYSSKRRVTVMISIVWVLSFTISCPLLFGLNNADQNECIIANPAFVVYSSIVSFYVPFIVTLLVYIKIYIVLRRRRKRVNTKRSSRAFRAHLRAPLKGNCTHPEDMKLCTVIMKSNGSFPVNRRRVEAARRAQELEMEMLSSTSPPERTRYSPIPPSHHQLTLPDPSHHGLHSTPDSPAKPEKNGHAKDHPKIAKIFEIQTMPNGKTRTSLKTMSRRKLSQQKEKKATQMLAIVLGVFIICWLPFFITHILNIHCDCNIPPVLYSAFTWLGYVNSAVNPIIYTTFNIEFRKAFLKILHC
notes: D2 dopamine receptor; mutant made from the FLAG-D2R-Rluc8 plasmid by site-directed mutagenesis; The mutant was also moved into the FLAG-D2R-Venus plasmid for saturation BRET; also called Mut2; D2R-Rluc8 V96S/V97C; source: HEK293, transfected; in intact cells (BRET, PD-PALM) and in lysate (Western blot); not shown: FLAG, N-terminal, kept; Rluc8 (donor copy)
For B1, the “increase of receptors in oligomers relative to D2R WT” value in data set [5] was roughly 6%.
